Source: IntAct's records for PubMed 22995871

target: mare1_mouse Mapre1 (UniProt Q61166)
Sequence (Q61166 whole entry): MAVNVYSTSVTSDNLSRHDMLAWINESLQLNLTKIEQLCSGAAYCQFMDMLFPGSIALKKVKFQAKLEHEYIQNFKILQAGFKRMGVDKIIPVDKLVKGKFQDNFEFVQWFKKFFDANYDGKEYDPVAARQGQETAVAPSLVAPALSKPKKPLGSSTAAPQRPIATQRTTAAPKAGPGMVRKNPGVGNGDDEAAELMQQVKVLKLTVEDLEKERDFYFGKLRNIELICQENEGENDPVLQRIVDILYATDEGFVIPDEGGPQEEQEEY

Effect of a mutation on the interaction, disrupting interaction:
Dystonin (Homo sapiens), Q03001 D7246A
Dystonin (Homo sapiens), Q03001 D7248A
Dystonin (Homo sapiens), Q03001 D7250A
